Reference: article PMC3159453 (Nucleic Acids Research, 2011)
Where a chain is given by its changes, count along the chain named. One block for each binder: values may come before it.

Tests used:
LexA A29R1 (LexA29) = LexA A29R1 (LexA29) (Escherichia coli K-12 RW118, UniProt P0A7C2 1-202, A29C); test: EPR
LexA G54R1 (LexA54) = LexA G54R1 (LexA54) (Escherichia coli K-12 RW118, UniProt P0A7C2 1-202, G54C); test: EPR
cross-linking [1] = molecular target: the molecule itself; test: cross-linking
[2] = molecular target: T1, LexA repressor (wild type) (E. coli K-12 strain RW118, UniProt P0A7C2 1-202); test: cross-linking
T1 sequence (looked up): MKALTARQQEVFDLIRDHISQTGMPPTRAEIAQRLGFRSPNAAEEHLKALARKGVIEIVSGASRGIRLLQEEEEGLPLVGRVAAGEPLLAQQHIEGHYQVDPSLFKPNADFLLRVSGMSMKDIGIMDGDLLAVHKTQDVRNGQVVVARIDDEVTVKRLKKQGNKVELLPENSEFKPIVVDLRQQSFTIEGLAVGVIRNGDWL

cross-linking [3] = molecular target: the molecule itself; test: cross-linking; remark: listed apart in the source
EPR = molecular target: the molecule itself; test: EPR

B1: tisB operator 24 bp (Tis_1b/Tis_2b) (dsDNA)
DNA 1: TTTACTGTATAAATAAACAGTAAT
DNA 2: ATTACTGTTTATTTATACAGTAAA
binding result (LexA A29R1 (LexA29)): binds | binding result (LexA G54R1 (LexA54)): binds

binding result [2]: binds
B2: LexA C-terminal fragment (CTD), product of self-cleavage (domain or fragment, E. coli K-12 strain RW118, UniProt P0A7C2 85-202, looked up)
chain: GEPLLAQQHIEGHYQVDPSLFKPNADFLLRVSGMSMKDIGIMDGDLLAVHKTQDVRNGQVVVARIDDEVTVKRLKKQGNKVELLPENSEFKPIVVDLRQQSFTIEGLAVGVIRNGDWL
binding result (cross-linking [1]): binds

B3: LexA54 (Gly54 replaced by Cys), oxidized (natural protein, E. coli K-12 strain RW118, UniProt P0A7C2 1-202, looked up)
chain: T1 sequence (looked up) with G54C
modifications: covalently bound at residue 54 after oxidation with 0.1 mM CuSO4 and 0.5 mM 1,10-phenantroline
binding result (cross-linking [3]): binds

B4: LexA29 spin labeled (A29R1) (natural protein, E. coli K-12 strain RW118, UniProt P0A7C2 1-202, looked up)
chain: T1 sequence (looked up) with A29C
modifications: MTSSL nitroxide spin label (R1) on the cysteine at position 29
binding result (EPR): binds

B5: LexA54 spin labeled (G54R1) (natural protein, E. coli K-12 strain RW118, UniProt P0A7C2 1-202, looked up)
chain: T1 sequence (looked up) with G54C
modifications: MTSSL nitroxide spin label (R1) on the cysteine at position 54
binding result (EPR): binds
